Measurements from patent EP0672136B1, “POLYPEPTIDES, DERIVED FROM ENDONEXIN 2, HAVING HEPATITIS B VIRUS RECEPTOR ACTIVITY AND THEIR USE IN DIAGNOSTIC AND PHARMACEUTICAL COMPOSITIONS” (priority 1992, dated 1994).

Biological target: T1, major HBsAg (Hepatitis B virus genotype A2 subtype adw2, UniProt P03141)
T1 construct: purchased Merck Sharp and Dohme Laboratories (gift of Dr. W. J. Miller, not bought); host or cells: yeast
Assay: Binding of radiolabeled endonexin II to immobilized major HBsAg in the presence of endonexin II peptide fractions (F-peak inhibition assay)
Parameters: species or system HBV
Conditions: fractions of acid-hydrolysed human liver endonexin-II; triplicate; Figure 23A
Protocol: Purified endonexin-II was treated according to the method as described in example 3. (Hydrolysis in 3% formic acid at 112°C for 4h). After treatment with formic acid, the protein digest was separated by reversed phase HPLC on a Vydac C-4 column (2.1 x 250 mm, Hesperia, CA, USA) as described in example 3. Peptide peaks were registered on a chart recorder and collected manually.
Binding experiments were performed according to the method as described in example 1 and 5. However, binding of radiolabeled endonexin-II to immobilized major HBsAg was carried out in the presence of individual peak fractions of unlabeled digested human liver endonexin-II (see above). The experiment was performed in triplicate. […] Therefore, these peptide was considered as one of the important major HBsAg-binding epitopes on endonexin-II. By sequencing an identical peak fraction in a parallel experiment, peptides corresponding to peaks F and S were determined as amino acids 266 to 280 (peak F, DHTLIRVMVSRSEID) and amino acids 92-138 (peak S): […]) of human endonexin II (numbering according to Kaplan et al., 1988).

T1 sequence (P03141 175-400): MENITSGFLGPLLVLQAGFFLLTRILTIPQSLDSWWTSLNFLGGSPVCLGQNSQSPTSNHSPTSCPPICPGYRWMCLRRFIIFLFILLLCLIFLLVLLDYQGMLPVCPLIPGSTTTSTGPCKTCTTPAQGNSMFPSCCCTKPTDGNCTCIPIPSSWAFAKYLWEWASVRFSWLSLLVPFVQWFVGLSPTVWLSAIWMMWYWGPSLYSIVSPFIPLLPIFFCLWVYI

## DEEKFITIFGTRSVSHLRKVFDKYMTISGFQIEETI [peak L, region encompassing amino acids 190 to 225 of human endonexin]
  inhibition of binding of radiolabeled endonexin-II to major HBsAg by HPLC peak fraction: slightly lower binding inhibition capacity
